Here are results for four variants from IntAct's records for PubMed 31515488.

B1: Syntenin-2 (Homo sapiens), Q9H190 (parent)
chain: MSSLYPSLEDLKVDQAIQAQVRASPKMPALPVQATAISPPPVLYPNLAELENYMGLSLSSQEVQESLLQIPEGDSTAVSGPGPGQMVAPVTGYSLGVRRAEIKPGVREIHLCKDERGKTGLRLRKVDQGLFVQLVQANTPASLVGLRFGDQLLQIDGRDCAGWSSHKAHQVVKKASGDKIVVVVRDRPFQRTVTMHKDSMGHVGFVIKKGKIVSLVKGSSAARNGLLTNHYVCEVDGQNVIGLKDKKIMEILATAGNVVTLTIIPSVIYEHMVKKLPPVLLHHTMDHSIPDA
B2: Glutathione S-transferase Mu 3 (Homo sapiens), P21266 (parent)
chain: MSCESSMVLGYWDIRGLAHAIRLLLEFTDTSYEEKRYTCGEAPDYDRSQWLDVKFKLDLDFPNLPYLLDGKNKITQSNAILRYIARKHNMCGETEEEKIRVDIIENQVMDFRTQLIRLCYSSDHEKLKPQYLEELPGQLKQFSMFLGKFSWFAGEKLTFVDFLTYDILDQNRIFDPKCLDEFPNLKAFMCRFEALEKIAAYLQSDQFCKMPINNKMAQWGNKPVC
partner: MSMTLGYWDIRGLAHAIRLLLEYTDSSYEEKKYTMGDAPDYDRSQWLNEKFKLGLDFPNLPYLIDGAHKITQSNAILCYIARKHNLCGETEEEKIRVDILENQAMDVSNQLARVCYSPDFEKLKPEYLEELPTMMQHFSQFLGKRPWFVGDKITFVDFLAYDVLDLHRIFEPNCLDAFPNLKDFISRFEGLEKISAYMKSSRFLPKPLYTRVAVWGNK

Variants of B1 are the subject of one assay. To be noted: with zch10_human ZCCHC10, Q8TBK6.
Chain of zch10_human ZCCHC10, Q8TBK6 (Q8TBK6 whole entry): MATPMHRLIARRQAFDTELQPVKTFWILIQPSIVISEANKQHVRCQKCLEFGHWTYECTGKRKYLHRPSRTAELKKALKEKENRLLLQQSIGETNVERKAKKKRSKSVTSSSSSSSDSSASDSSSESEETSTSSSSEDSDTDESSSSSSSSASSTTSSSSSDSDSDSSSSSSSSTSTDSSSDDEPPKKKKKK
Take G242R: the “effect of a mutation on the interaction” value was “disrupting interaction strength”.

Turning to G225R, the “effect of a mutation on the interaction” value is “disrupting interaction strength”.

In the next assay the parent is B1. As to conditions: with t23o_human TDO2, P48775.
Chain of t23o_human TDO2, P48775 (P48775 whole entry, looked up): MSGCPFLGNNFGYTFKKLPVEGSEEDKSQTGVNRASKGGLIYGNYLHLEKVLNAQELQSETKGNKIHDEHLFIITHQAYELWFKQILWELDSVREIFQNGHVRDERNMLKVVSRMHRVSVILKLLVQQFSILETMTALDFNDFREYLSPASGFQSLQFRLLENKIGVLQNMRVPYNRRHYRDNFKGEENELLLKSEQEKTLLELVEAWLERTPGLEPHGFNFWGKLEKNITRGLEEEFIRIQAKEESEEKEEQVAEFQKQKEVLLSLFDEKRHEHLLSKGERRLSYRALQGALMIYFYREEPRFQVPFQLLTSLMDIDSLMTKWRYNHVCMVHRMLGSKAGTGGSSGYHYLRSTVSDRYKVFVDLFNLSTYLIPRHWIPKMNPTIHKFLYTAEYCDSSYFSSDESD
G242R: the “effect of a mutation on the interaction” value is given as “disrupting interaction strength”.

Turning to G225R, the “effect of a mutation on the interaction” value was “disrupting interaction strength”.

In the next assay the parent is B1. To be noted: with lyar_human LYAR.
As to G242R, the “effect of a mutation on the interaction” value is “disrupting interaction strength”.

Regarding G225R, the “effect of a mutation on the interaction” value is given as “disrupting interaction strength”.

The variants in the next assay derive from B1. As to conditions: with ytdc1_human YTHDC1, Q96MU7.
Turning to G242R, the “effect of a mutation on the interaction” value is “disrupting interaction strength”.

Take G225R: the “effect of a mutation on the interaction” value is “disrupting interaction strength”.

In another assay the parent is B1. To be noted: with FAM133A.
G242R: the “effect of a mutation on the interaction” value was “disrupting interaction strength”.

Turning to G225R, the “effect of a mutation on the interaction” value was “disrupting interaction strength”.

Another assay covers variants of B2. To be noted: with gstm4_human GSTM4, Q03013.
On to R86H, for which the “effect of a mutation on the interaction” value was “disrupting interaction strength”.

For L23P, the “effect of a mutation on the interaction” value is “disrupting interaction strength”.
